{
  "source": "patent US20250382354A1",
  "experiment_in_all_cases": "peptide ELISA",
  "key": {"[1]": {"target": "OC43 FP peptide (OC43), P36334"}, "[2]": {"target": "Hu_PDCoV FP peptide (Hu_PDCoV)"}, "[3]": {"target": "NL63 FP peptide (NL63), Q6Q1S2"}, "[4]": {"target": "HKU1 FP peptide (HKU1)"}, "[5]": {"target": "CCoV_HuPn FP peptide (CCoV_HuPn)"}, "[6]": {"target": "SARS-CoV FP peptide (SARS-CoV), P59594"}, "[7]": {"target": "SARS-CoV-2 FP peptide (SARS-CoV-2)"}, "[8]": {"target": "229E FP peptide (229E)"}, "[9]": {"target": "MERS FP peptide (MERS), K9N5Q8"}},
  "data": [
    {"binder": "fp.009 (antibody, V domains shown) VH: VQLVESGGGVVQPGTSLTLSCEASGFTFSNYAMHWVRQAPGKGLEWVAIISFDTRNKKFAGSVQGRFSISRDNAKNSIYLQMNNLRPEDTGIYYCARDVFLSDYDSRGFDRTRGGFDYWGQGTLVTVSS VL: EIVMTQSPATLSVSPGEKATLSCRASESVGSSLAWYQQKLGQAPRLLIYGASTRATGIPARFSGSGSGAEFTLTISSLQSEDFAIYYCQQYGDWPLLTFGGGTKVEIK", "values": [
      {"measurement": "EC50", "setting": "[1]", "value": 0.026, "unit": "µg/mL"},
      {"measurement": "EC50", "setting": "[2]", "value": 0.0276, "unit": "µg/mL"},
      {"measurement": "EC50", "setting": "[3]", "value": 0.0214, "unit": "µg/mL"},
      {"measurement": "EC50", "setting": "[4]", "value": 0.0241, "unit": "µg/mL"},
      {"measurement": "EC50", "setting": "[5]", "value": 0.021, "unit": "µg/mL"},
      {"measurement": "EC50", "setting": "[6]", "value": 0.0251, "unit": "µg/mL"},
      {"measurement": "EC50", "setting": "[7]", "value": 0.038, "unit": "µg/mL"},
      {"measurement": "EC50", "setting": "[8]", "value": 0.0236, "unit": "µg/mL"},
      {"measurement": "EC50", "setting": "[9]", "value": 0.0346, "unit": "µg/mL"}
    ]}
  ]
}
